Results on 3 substances are retold here after paper PMC7804308.

For test [1], the target named is BG505 SOSIP.664 gp140 trimer (HIV). As to the kind of experiment: SPR. On the technique in general: In SPR one partner is held on a chip, and binding of the other changes the refractive index at the surface.
Test [2] has as its target F84T Malay BanLec (Musa acuminata ssp. malaccensis). The experiment in a line: crystal structure; WT and F84T Malay BanLec each at 5 mg/mL in 10 mM HEPES pH 7.5, 150 mM NaCl; crystals grown at 20 °C from ammonium sulfate; dimers in the asymmetric unit.
Test [3] concerns the target WT Malaysian banana lectin (Malay BanLec) (Musa acuminata ssp. malaccensis). The description is as above.

Regarding F84T Malay BanLec (natural protein), in test [1], the Kd – broadly, the free concentration of one partner at which half of the binding sites on the other are occupied at equilibrium, for simple one-to-one binding – worked out at 0.368 nM; the koff – broadly, a measure of how fast the partners let go of each other – came out at 0.000266 s⁻¹; the kon (as a rule, a measure of how fast the partners come together) is 720000 M⁻¹ s⁻¹. In addition, the stoichiometry N (in general, the number of molecules, sites or subunits per partner or assembly) in test [2] turned out to be 2.
In test [1], “WT Malaysian banana lectin (Malay BanLec) (natural protein)” registered a Kd of 0.122 nM, a koff of 0.00014 s⁻¹ and a kon of 1.33e+06 M⁻¹ s⁻¹. Also, the stoichiometry N in test [3] came to 2.
On to “griffithsin (GRFT) (from UniProt P84801 1-121) (natural protein)”, for which, in test [1], the Kd was determined as 0.137 nM, the koff is 0.00074 s⁻¹ and the kon was found to be 5.56e+06 M⁻¹ s⁻¹.
